Results on two molecules are retold here after PMC6317306.

The target of this assay is FLAG-Cep85-6D (UniProt Q6P2H3). The assay is described as follows: co-IP.

Where only a bound is given, the exact number is not on record here.

B1: HA-Nek2A (enzyme)
chain: MPSRAEDYEVLYTIGTGSYGRCQKIRRKSDGKILVWKELDYGSMTEAEKQMLVSEVNLLRELKHPNIVRYYDRIIDRTNTTLYIVMEYCEGGDLASVITKGTKERQYLDEEFVLRVMTQLTLALKECHRRSDGGHTVLHRDLKPANVFLDGKQNVKLGDFGLARILNHDTSFAKTFVGTPYYMSPEQMNRMSYNEKSDIWSLGCLLYELCALMPPFTAFSQKELAGKIREGKFRRIPYRYSDELNEIITRMLNLKDYHRPSVEEILENPLIADLVADEQRRNLERRGRQLGEPEKSQDSSPVLSELKLKEIQLQERERALKAREERLEQKEQELCVRERLAEDKLARAENLLKNYSLLKERKFLSLASNPELLNLPSSVIKKKVHFSGESKENIMRSENSESQLTSKSKCKDLKKRLHAAQLRAQALSDIEKNYQLKSRQILGMR
With B1, the percent reduction of affinity against Nek2A-4A came to 50%.

B2: HA-Nek2A-4D (enzyme)
chain: MPSRAEDYEVLYTIGTGSYGRCQKIRRKSDGKILVWKELDYGSMTEAEKQMLVSEVNLLRELKHPNIVRYYDRIIDRTNTTLYIVMEYCEGGDLASVITKGTKERQYLDEEFVLRVMTQLTLALKECHRRSDGGHTVLHRDLKPANVFLDGKQNVKLGDFGLARILNHDTSFAKTFVGTPYYMSPEQMNRMSYNEKSDIWSLGCLLYELCALMPPFTAFSQKELAGKIREGKFRRIPYRYSDELNEIITRMLNLKDYHRPSVEEILENPLIADLVADEQRRNLERRGRQLGEPEKSQDSSPVLSELKLKEIQLQERERALKAREERLEQKEQELCVRERLAEDKLARAENLLKNYDLLKERKFLDLASNPELLNLPSSVIKKKVHFSGESKENIMRSENSESQLTDKSKCKDLKKRLHAAQLRAQALSDIEKNYQLKDRQILGMR
B2 displayed a percent reduction of affinity against Nek2A-4A of more than 60%.
